In patent US20260069536A1, “COMPOSITIONS, SYSTEMS, AND METHODS FOR DELIVERY OF THERAPEUTICS” (THE JOHNS HOPKINS UNIVERSITY, priority 2022, published 2026):
Square brackets hold non-standard residues; d marks the D form. Ends that are not written are not given here. Nva = CCC[C@H](N)C(=O)O

Columns and labels:
[1] = system: mouse heart transplant model; assay: Mouse heart transplant model, localized Tofa hydrogel with CTLA4-Ig; type: in vivo; settings: localized release around the transplanted heart, single administration
From the text: FIG. 3A is a schematic of localized delivery of Tofacitinib (Tofa) microcrystals from a hydrogel (MTH) implanted in mice receiving heterotopic heart transplant. FIG. 3B is survival curves of C57Bl/6 mice receiving BALB/c heart transplants under the indicated treatments.
A peptide hydrogel (MAX8) that self-assembles at physiological conditions and encapsulated crystalline Tofa (cJAKi-Hydro) was used to assess that the localized release of a JAKi (Tofa) around the transplanted heart would have synergism with CTLA4-Ig as systemic Tofa administration (FIG. 3A).

Treg = assay: Suppressive activity of Treg under Tofa; type: cell-based
dendritic cells = assay: Maturation of dendritic cells under Tofa; type: cell-based
[2] = system: full MHC mismatch (C57BL/6 to BALB/c) mouse heart transplantation model; assay: Mouse heart transplantation model, systemic Tofa with CTLA4-Ig; type: in vivo
[3] = Release of Ani2-NLCs from peptide gels in the absence of enzyme; type: physicochemical
Procedure: (§1) Preliminary experiments were conducted on the proteolytic stability of the peptides and the impact on the release of the encapsulated NLCs. To investigate protease-mediated release, comparative release rates of Ani2-NLCs were studied with respect to nVET2 and IVET1 gels in trypsin-rich and MMP12-rich environments. Ani2-NLCs are retained within the gels over extended periods of time due to their negative zeta potential that allows them to bind to the positively charged gel network.
(§2) Upon trypsinization, both IVET1 and nVET2 gels show faster release rates of Ani2-NLCs than those observed in the absence of the protease. […] These relative release trends of IVET1 and nVET2 gels are somewhat consistent with the degradation of the individual peptides by trypsin and MMP12. Trypsin hydrolyzes proteins at the carboxyl side of lysine and arginine amino acid residues and as such, the peptides IVET1 and nVET2 contain six cleavable sites with respect to trypsin. On the other hand, MMP12 recognizes a single cleavage site (PLG↓VR) within each of the peptide sequences. Thus, the observed rate of release of the NLCs is proportional to the number of protease-specific cleavage sites within the peptide sequence
At the end of 10 days, less than 20% of Ani2-NLCs were released in the absence of enzyme. Thus, two distinct release regimes of tofacitinib are attainable with simultaneous incorporation of the drug as microcrystalline deposits and as Tofa-NLCs.

[4] = Release of microcrystalline tofacitinib from peptide gels (UV-Vis); type: physicochemical; settings: 32 mM microcrystalline deposits, after 10 days
Procedure: The release rates of microcrystalline tofacitinib from select peptide gels (MAX8 and HLT2) was determined as in Majumder, P., et al., Small 2020, 16, 2002791, incorporated herein by reference (FIG. 18A). As such, the release rates were established for the enzyme cleavable peptides (nVET1 and IVET1) at two different drug loads—16 mM and 32 mM. The release of tofacitinib was quantified using UV-Vis spectroscopy (λ=285 nm). […] The release profile is thus dependent on the final concentration of drug loaded and consistent with crystal dissolution being rate-determining.

MMP12 [5] = biological target: T1, MMP12 (Homo sapiens, UniProt P39900); assay: Protease-mediated release of NLC from peptide gels, MMP12; type: physicochemical; settings: MMP12 treated gels
Procedure: as §1, §2

MMP12 [6] = biological target: T1, MMP12; assay: Rheology of MMP12-treated peptide gels; type: physicochemical; settings: 150 ul, 1 wt % gels, 37° C., MMP12, 1×HBS pH 7.4, 12 days
Procedure: To provide further insight into the mechanistic effects of the gel release rates described above, the rheological properties of the MMP12-treated peptide gels were investigated. For this study, pre-formed IVET1 gels (150 ul, 1 wt %) were incubated at 37° C. with MMP12 (1×HBS, pH 7.4) and the storage modulus at 6.3 rad/s (obtained from frequency sweep measurements) was plotted at different time points for each gel. […] Despite peptide cleavage, the gels remained intact due to the stable cross-linked fiber network supported by the inter-hairpin hydrophobic contacts of the peptides upon self-assembly.

trypsin = assay: Protease-mediated release of NLC from peptide gels, trypsin; type: physicochemical; settings: first 24 hours; for increase in release rate upon trypsinization: relative to absence of protease; for Ani2-NLCs released: with trypsin
Procedure: FIGS. 10A and 10B show protease responsive LNp release. […] FIG. 10B is a graph of the release profiles of Ani2-NLC from Peptide-4 gels in response to trypsin.
IVET2—SEQ ID NO: 7; IVET1—SEQ ID NO: 8; nVET2—SEQ ID NO: 9; nVET1—SEQ ID NO: 10.
as §1, §2

[7] = Hydrogel toxicity after SQ injection in skin flap; settings: SQ injection after flap raise, visual monitoring
Procedure: To this end, the condition of transplants was replicated by surgically separating the skin of the prospective area of injection (flap raise) followed by suturing the edges. After completion of the surgical procedure, empty hydrogel or Tofa containing hydrogel was injected SQ and the area monitored visually for any macroscopic sign of toxicity.

[8] = Gel stiffness (storage modulus G′) after NLC encapsulation; type: physicochemical; settings: following encapsulation of neutral or negatively-charged NLCs
From the text: FIGS. 6A-6C show LNp encapsulation in a hydrogel. FIG. 6A is a graph of the comparative storage moduli (G′) of MAX8 gels with and without Neut-NLCs and Ani2-NLCs. FIG. 6B is a graph of the cumulative release profiles of Neut-NLC and Ani2-NLC from MAX8 gels. FIG. 6C is an image of LNp retention by MAX8 gels. A lipophilic dye (pink) was encapsulated within the NLCs to quantify release after 5 days.
To improve particle retention within the gel, the nanoparticles were modified to achieve a slightly negative surface charge (the hydrogel network is positively charged) by adding a small percentage of anionic surfactant (Glycolic Acid Ethoxylate Oleyl Ether) together with the Gelucire 44/14. Two different ratios of these surfactants were used until similarly sized nanoparticles were achieved.

[9] = absence of enzyme, end of 10 days
[10] = absence of trypsin (control gel), first 24 hours

T1 sequence (P39900 106-470, species assumed): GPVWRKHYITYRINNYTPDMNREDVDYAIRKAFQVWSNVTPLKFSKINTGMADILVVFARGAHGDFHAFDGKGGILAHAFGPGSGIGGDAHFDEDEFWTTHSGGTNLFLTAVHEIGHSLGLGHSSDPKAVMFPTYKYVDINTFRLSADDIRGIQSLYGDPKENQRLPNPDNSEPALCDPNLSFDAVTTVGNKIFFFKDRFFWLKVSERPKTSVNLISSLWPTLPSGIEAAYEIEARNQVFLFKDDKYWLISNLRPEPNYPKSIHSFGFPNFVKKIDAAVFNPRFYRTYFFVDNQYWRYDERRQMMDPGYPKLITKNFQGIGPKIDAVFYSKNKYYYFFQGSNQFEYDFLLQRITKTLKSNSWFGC

Molecule | Ani2-NLCs released [3, 9] | drug release [4] | Ani2-NLCs released [3, 10] [%] | release rate of Ani2-NLCs (MMP12 [5]) | increase in release rate upon trypsinization (trypsin) [fold] | Ani2-NLCs released (trypsin) [%] | further results
C[C@@H]1CCN(C(=O)CC#N)C[C@@H]1N(C)c1ncnc2[nH]ccc12 [Tofa, 3-((3R,4R)-4-methyl-3-(methyl(7H-pyrrolo[2,3-d]pyrimidin-4-yl)amino)piperidin-1-yl)-3-oxopropanenitrile] |  |  |  |  |  |  | graft survival [1]: as effective at synergizing with systemic CTLA4-Ig as 16 oral gavage administrations; suppressive activity of Treg (Treg): only minimally affected the suppressive activity of Treg; up-regulation of MHC-II molecules (dendritic cells; dendritic cells): did not prevent the up-regulation of MHC-II molecules; maturation of dendritic cells (dendritic cells; upregulation of costimulatory molecules and secretion of pro-inflammatory cytokines): very effective at preventing the maturation of dendritic cells; differentiation of TH1 effector T cells ([2]; Tofa+CTLA4-Ig): inhibition of the differentiation of TH1 effector T cells; regulatory T cells (Treg) ([2]; Tofa+CTLA4-Ig): accumulation of a high frequency of regulatory T cells; graft survival with ischemic hearts ([2]; Tofa+CTLA4-Ig, hearts kept ischemic for 4h before transplantation): improvement in survival was unaffected; graft survival ([2]; combination with CTLA4-Ig, Tofa POD-1 to POD6, twice daily via oral gavage): promoted long-term graft survival
(nV)K(nV)E(nV)KVKV^DPPLGVRTK(nV)K(nV) ([Nva]K[Nva]E[Nva]KVKVPPLGVRTK[Nva]K[Nva]; also: P10 written ^DP (meaning not given here)) [nVET1] | less than 20% | less than 60% |  |  |  |  | 
IKVEIKVKV^DPPLGVRTKIKV (IKVEIKVKVPPLGVRTKIKV; also: P10 written ^DP (meaning not given here)) [IVET1] | less than 20% | less than 60% | 1.5 | intermediate between their respective trypsin-rich and protease-free gel environments | ~12 | 17.4 | storage modulus at 6.3 rad/s (MMP12 [6]): relatively stable storage modulus
VKVKVKVKV^DPPTKVEVKVKV (VKVKVKVKVPPTKVEVKVKV; not fully specified (residue 10)) [MAX8] |  |  |  |  |  |  | macroscopic sign of toxicity [7]: absence of any evidence of toxicity; gel stiffness [8]: stiffness is maintained
(nV)KTE(nV)KVKV^DPPLGVRTK(nV)K(nV) ([Nva]KTE[Nva]KVKVPPLGVRTK[Nva]K[Nva]; also: P10 written ^DP (meaning not given here)) [nVET2] |  |  | 10 | intermediate between their respective trypsin-rich and protease-free gel environments | 3 | 30 | 
